Test results as given in patent EP4755920A1.

Biological target: hIL4Rα-ECD(26-232)-mFc (human)
Assay: competition ELISA, hIL4R-ECD-mFc captured by anti-mFc, biotinylated human IL4 as competitor

IC50: 9.95 nM
Substance: Isotype (antibody)
